Data from publication PMC8084935.

Molecular target: FITC-labeled McrA peptide (GG-…) (Methanothermobacter sp. CaT2)
Assay: fluorescence polarisation

Kd: 7 µM
Substance: MtYcaO (YcaO from Methanothermobacter sp. CaT2), MBP-His tag cut in the assay mixture (enzyme)
